The nature of the data set: soluble on expression in E. coli; label from the status in PepcDB or PDB records.
For “MGSDKIHHHHHHMSLPIIKVHWLDHSRAFRLLWLLDHLNLEYEIVPYKRDANFRAPPELKKIHPLGRSPLLEVQDRETGKKKILAESGFIFQYVLQHFDHSHVLMSEDADIADQINYYLFYVEGSLQPPLMIEFILSKVKDSGMPFPISYLARKVADKISQAYSSGEVKNQFDFVEGEISKNNGYLVDGKLSGADILMSFPLQMAFERKFAAPEDYPAISKWLKTITSEESYAASKEKARALGSNF”, the “soluble on expression in E. coli” value was “not soluble”.
As to “MGSDKIHHHHHHMLKRILVIIGLAVLATACSNAPRTVSHQVISENDDIQLTGLINNLEKDNRTGIFHKVRTNRSSALMGDKALASVYNEWVGTRYRMGGTTKRGIDCSAFMQTTFSEVFGIELPRSTAEQRHLGRKINKSELKKGDLVFFRKNNHVGVYIGNNQFMHASTGQGVTISSLDEKYWARTYTQSRRIM”, the “soluble on expression in E. coli” value was “not soluble”.
As for “SAENREPRCAIEAELDPVEYTLRKRLPHRLPRRPNDIYVNMKTDFKAQLARCQKLLDGGTRGQNACTEIYIHGLGLAINRAINIALQLQAGSFGSLQVAANTSTVELVDELEPETDSREPLTRVRNNSAIHIRVFRVTPK”, the “soluble on expression in E. coli” value is listed as “soluble”.
“MCLVNEFVSNSNMKPALNVSGDEKELILQLRRYLEEKLTYLLDQNGTVSIGVSGGSMPRVFSKAILSLPQEQLNWKRIRIFMVDERNVDLDSEESNQGEYLRLFPNELRDVFVPMQIFKDPCLTAQHYEISLRKYLLPEQLNNTARFDILFLGVGPDGHTASIFPGKERLEKITELNWVSVITDSPKPPPSRITLTLQTLQHAKNVAFIICGKQKAEIVRGICDRDQKYPAAQARPFNDKLTLFLDEDAATGVPDRDSSDSDSPPPFDG”: the “soluble on expression in E. coli” value is “not soluble”.
As for “MGSDKIHHHHHHMQKLQTVNAETLLYEPLEKPSFVVDSLIPTGLSLFCGSQKIGKSWLMLKLCLCVSQGIPLWDMPTMEGDVLYLCLEDTFCRIQDRLFRLTDEASGRLHFAVASCKLSDGLIVQLEDYLKDYPDSRLIVIDTLQKVRTASKDNAYASDYGDISLIKDFADRHSLAVIVVHHIRKQNDSDVFNKVSGTTGLTGSADATFVLEKEKRASDTAKLYVTGRDTPYQEYTLRFRDCRWELVERKTQEQLAKETIPDVLFRLVDFMRDKEEWIGTATELLAAMGETETIPTVITKWLNEYRTTFLSENRICYQYSRRKDGRRIALARRAGDSGDGGDSDIRIPPCYCH”, the entry is “not soluble”; as for “MPYIALEDGFLRSFGTGRHFPPLSLVVDRLGIYYDATRESELECLLASSRTLLDGIEDAVPEAMELVRERRLSKYNHGGFLATGVPADGRRRVLVVDQTEGDMSVTLGCAEAATFEAMLAAARAENPGALICVKTHPEVAAGDKSGYLSRVTDDADTLALRHDMNPLALLEQMDRVYVVSSQMGFEALMLDKPVICFGMPWYAGWGVTDDRQRCERRGRARSVEELFAGAYFHYTRYLDPVLH”, “not soluble”.
As to “MKNKNDQHLRLQQQIIHYRSEAASCRQQVQQLEAELAKEKMRSAYLKEKLREAETTNVETYKKKIAALERQLLLCEIALEETRYNTSKETQTPAFERAAAVSALFHYSVVVPTHLDEEELTIIGDFIIRNHGTAPLHHLIVCLRLSPPKTAVLSGKIVLPNSGRAEQEALISNSAESWTFTQENWREKVRQSGEYWLAPLYDAPLEPGEERRFSQFEITVPPSSNARSLTVDGFVYCAELPKGVPAANHIAIQW”, the “soluble on expression in E. coli” value is listed as “not soluble”.
Consider “SLQMQGITGSNITVLELVERYLSLKTGVKHNTLANYKFVVNVLKKEEFAYKKVDDVKLSDAKIFLIKLQRDGRGYSSIHSIRGVLRPAFQMAVDDDLILKNPFGFELGTVLVNDSQKRQAVSPEDETKFLDFVKNDPHYNQYYDAFYILFKTGLRISEFCGLTVKDLDFKEDIINVNHQLQRTREMKYIIVSTKTTSGTRLLPMEADVKEAFLRILKNRRKPKREPMVDGYGGFLFLDKNGRPMVALHWEKYMQHAREKYNRENLLQLPPVTPHICRHTYCTNMANSGMNPKTLQYLMGHSDVSVTLNIYTHTGYDDAKKELARLKEARDELEKKKFITQKHAQTTHVSLIS”, for which the “soluble on expression in E. coli” value is “not soluble”.
In the case of “MVHGKLKEAAEVTGSVSLEALEEVQVGENIEVGVGIDELVNAEAFAYDFTLNYDENAFEYVEAISDDGVFVNAKKIEDGKVRVLVSSLTGEPLPAKEVLAKVVLRAEAKTEGSNLSVTNSSVGDGEGLVHEIAGTEKTVNIIEGTSPEIVVNPVRDFKASEINKKNVTVTWTEPETTEGLEGYILYKDGKKVAEIGKDETSYTFKKLNRHTIYNFKIAAKYSNGEVSSKESLTLRTAR” it was “soluble”.

The values are drawn from the DeepSol protein solubility set.
